Results from patent publication US20260232827A1 (Zymeworks, published 2026).
Positions count from the first letter of the chain named.

B1: v21995 (palivizumab, anti-RSV negative control) (antibody, human IgG1, kappa, V domains shown)
VH: QVTLRESGPALVKPTQTLTLTCTFSGFSLSTSGMSVGWIRQPPGKALEWLADIWWDDKKDYNPSLKSRLTISKDTSKNQVVLKVTNMDPADTATYYCARSMITNWYFDVWGAGTTVTVSS
VL: DIQMTQSPSTLSASVGDRVTITCKSQLSVGYMHWYQQKPGKAPKLLIYDTSKLASGVPSRFSGSGSGTEFTLTISSLQPDDFATYYCFQGSGYPFTFGGGTKLEIKR
B2: v40554 (LALA) anti-NaPi2b antibody (antibody)
chain 1: not shown
chain 2: DVQMTQSPSSLSASVGDRVTITCRASQDVYSYLNWYQQKPGKAVKLLIYYTSRLQSGVPSRFSGSGSGTDYTLTISSLQPEDFATYYCQQYNIFPWTFGQGTKLEIKRTVAAPSVFIFPPSDEQLKSGTASVVCLLNNFYPREAKVQWKVDNALQSGNSQESVTEQDSKDSTYSLSSTLTLSKADYEKHKVYACEVTHQGLSSPVTKSFNRGEC

How the values were obtained:
[1] = molecular target: T1, Construct 6 (NaPi2b del 317-333) (human, UniProt O95436 1-690); assay: flow cytometry, HEK293-6e cells transfected with Construct 6
T1 construct: Deletion construct on HEK293-6e cells; also called CL_#29919
T1 sequence: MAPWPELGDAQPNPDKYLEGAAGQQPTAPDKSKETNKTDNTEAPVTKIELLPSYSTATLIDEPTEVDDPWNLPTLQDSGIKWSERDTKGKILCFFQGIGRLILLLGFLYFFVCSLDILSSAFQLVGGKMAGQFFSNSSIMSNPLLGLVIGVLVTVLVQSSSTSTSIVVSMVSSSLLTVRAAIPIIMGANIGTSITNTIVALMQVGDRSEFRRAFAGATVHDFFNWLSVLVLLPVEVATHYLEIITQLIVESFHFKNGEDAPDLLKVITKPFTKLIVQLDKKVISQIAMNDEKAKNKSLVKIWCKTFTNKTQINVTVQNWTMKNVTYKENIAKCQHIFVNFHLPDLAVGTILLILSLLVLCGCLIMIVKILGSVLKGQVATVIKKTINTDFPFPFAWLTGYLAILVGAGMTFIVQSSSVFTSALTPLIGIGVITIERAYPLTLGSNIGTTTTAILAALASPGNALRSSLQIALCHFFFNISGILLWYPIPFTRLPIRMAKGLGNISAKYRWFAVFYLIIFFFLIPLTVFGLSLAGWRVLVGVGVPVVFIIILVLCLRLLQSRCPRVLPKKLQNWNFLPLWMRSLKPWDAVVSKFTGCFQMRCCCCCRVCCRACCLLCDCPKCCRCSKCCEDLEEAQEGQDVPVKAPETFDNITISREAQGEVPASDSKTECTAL
Description: (§1) Following transfection, cells were seeded at 50,000 cells/well in conical-bottom 96-well plates and treated with a serial dilution of test antibody for 24 hours at 4° C. to prevent internalization. Cells were treated with final concentrations of all humanized antibodies of 200, 20, or 2 nM. Cells were treated with final concentrations of the reference anti-NaPi2a rabbit antibody of 50, 5, or 0.5 nM. […] Following incubation and washing, fluorescence was detected by flow cytometry on a BD LSRFortessa™ Cell Analyzer (BD Biosciences, Franklin Lake, NJ) with 1,000 minimum events collected per well. […] Background-subtracted AF647 Mean Fluorescence Intensity (MFI) values were calculated by subtracting the average MFI of three technical replicates of unstained (no primary antibody) cells.

[2] = molecular target: T2, Construct 7 (NaPi2b del 317-326) (human, UniProt O95436 1-690); assay: flow cytometry, HEK293-6e cells transfected with Construct 7
T2 construct: Deletion construct on HEK293-6e cells; also called CL_#29921
T2 sequence: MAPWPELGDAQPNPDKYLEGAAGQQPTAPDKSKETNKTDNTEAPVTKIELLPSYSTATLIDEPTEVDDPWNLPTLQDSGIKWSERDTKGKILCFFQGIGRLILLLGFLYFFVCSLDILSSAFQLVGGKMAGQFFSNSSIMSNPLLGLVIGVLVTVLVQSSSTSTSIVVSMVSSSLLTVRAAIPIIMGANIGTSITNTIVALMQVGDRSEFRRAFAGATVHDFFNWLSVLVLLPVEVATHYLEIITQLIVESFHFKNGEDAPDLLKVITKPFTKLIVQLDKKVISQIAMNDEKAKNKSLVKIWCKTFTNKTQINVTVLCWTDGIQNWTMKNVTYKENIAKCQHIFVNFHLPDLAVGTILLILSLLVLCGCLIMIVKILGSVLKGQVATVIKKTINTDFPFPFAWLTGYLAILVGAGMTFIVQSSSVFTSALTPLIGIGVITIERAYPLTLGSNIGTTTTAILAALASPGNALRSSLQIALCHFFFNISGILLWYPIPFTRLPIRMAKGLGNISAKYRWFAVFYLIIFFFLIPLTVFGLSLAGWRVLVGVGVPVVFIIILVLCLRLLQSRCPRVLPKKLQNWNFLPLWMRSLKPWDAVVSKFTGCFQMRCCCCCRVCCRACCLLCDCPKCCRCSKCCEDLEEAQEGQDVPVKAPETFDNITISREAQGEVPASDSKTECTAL
Description: as §1

[3] = molecular target: T3, human sodium-dependent phosphate transporter 2B (NaPi2b) (human, UniProt O95436 1-690); assay: flow cytometry on IGROV-1 cells (endogenous NaPi2b), 24 h at 4 C, anti-human IgG Fc AF647, APC-A GeoMean
T3 construct: UniProt ID is given as 095436 [sic]; also called hNaPi2b; Hu NaPi2b
T3 sequence: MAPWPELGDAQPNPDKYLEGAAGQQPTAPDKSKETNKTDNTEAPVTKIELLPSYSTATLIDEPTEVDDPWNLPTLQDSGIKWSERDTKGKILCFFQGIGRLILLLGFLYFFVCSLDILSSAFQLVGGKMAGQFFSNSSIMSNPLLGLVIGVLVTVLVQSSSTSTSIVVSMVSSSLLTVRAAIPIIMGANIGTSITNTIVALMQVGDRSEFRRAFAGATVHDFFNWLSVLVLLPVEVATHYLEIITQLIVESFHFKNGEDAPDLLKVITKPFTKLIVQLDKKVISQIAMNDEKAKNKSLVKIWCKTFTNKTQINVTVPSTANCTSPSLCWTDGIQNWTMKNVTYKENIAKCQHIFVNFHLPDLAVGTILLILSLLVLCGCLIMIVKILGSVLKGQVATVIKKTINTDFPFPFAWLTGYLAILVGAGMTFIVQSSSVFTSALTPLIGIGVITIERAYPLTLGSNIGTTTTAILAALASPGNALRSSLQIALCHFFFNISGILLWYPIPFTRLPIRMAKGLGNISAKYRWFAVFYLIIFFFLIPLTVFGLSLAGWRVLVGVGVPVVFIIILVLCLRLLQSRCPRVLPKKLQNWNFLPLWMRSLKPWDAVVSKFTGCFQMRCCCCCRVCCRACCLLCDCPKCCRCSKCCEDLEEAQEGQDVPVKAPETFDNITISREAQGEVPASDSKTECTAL
Description: Cells were maintained under standard culture conditions (37° C./5% CO₂) until assay set-up. […] Cells were removed from culture vessels using Cell Dissociation Buffer (Invitrogen, Waltham, MA), seeded at 50,000 cells/well in conical-bottom 96-well plates, and treated with test antibody or antibody-drug conjugate for 24 hours at 4° C. to prevent internalization. […] Following incubation and washing, fluorescence was detected by flow cytometry on a BD LSRFortessa™ Cell Analyzer (BD Biosciences, Franklin Lake, NJ) with 1,000 minimum events collected per well.

[4] = molecular target: T4, human FcγR IIB Y160 CD32bY (v5777) (human, UniProt P31994 43-217, limits assumed); assay: SPR (Biacore T200), antibody captured on protein A, FcγR as analyte, single-cycle, steady-state fit;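 note: five FcγR concentrations per single cycle, 40 s association then 120 s dissociation, responses corrected against a reference flow cell and blank buffer injections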
T4 construct: In-house reagent
T4 sequence (looked up): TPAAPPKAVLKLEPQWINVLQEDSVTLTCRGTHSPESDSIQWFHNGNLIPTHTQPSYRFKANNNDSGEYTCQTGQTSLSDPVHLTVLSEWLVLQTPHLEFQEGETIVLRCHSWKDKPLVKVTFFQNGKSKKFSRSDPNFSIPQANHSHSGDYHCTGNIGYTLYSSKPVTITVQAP
Description: (§2) Approximately 400-600 RUs of each antibody (2 μg/mL) were captured on the protein A surface on flow cell 2, 3 and 4 by injecting at 10 μL/min for 60 s. Flow cell 1 was used as a reference surface. […] Each in-house FcγR with five concentrations were flowed as analyte using single-cycle kinetics strategy. The flow rate of FcγRs was 50 L/min with contact time of 40 sec and dissociation time of 120 sec. For the high affinity FcγRI CD64, multicycle kinetics were applied. The flow rate of the analyte was 100 L/min with contact time of 100 sec and dissociation time of 650 sec. Blank buffer control was injected using the same flow rate and contact time for each cycle. Surface regeneration was accomplished using 10 mM glycine-HCl, pH 1.5 (Cytiva©, BR100354) for 30 sec with a flow rate of 50 μL/min after each cycle. Binding constants and the maximum observed binding signal (Rmax) were determined using the Biacore™ T200 Evaluation software (version 3.0; GE Healthcare). For single-cycle kinetics, blank-subtracted sensorgrams were analyzed using steady state affinity fitting model. For multicycle kinetics, results were fit to the 1:1 Langmuir binding model.

[5] = molecular target: T5, human FcγR IIIA V159 CD16aV (v5773) (human, UniProt P08637 17-208, limits assumed); assay: as above
T5 construct: In-house reagent
T5 sequence (P08637 17-208 F176V limits assumed): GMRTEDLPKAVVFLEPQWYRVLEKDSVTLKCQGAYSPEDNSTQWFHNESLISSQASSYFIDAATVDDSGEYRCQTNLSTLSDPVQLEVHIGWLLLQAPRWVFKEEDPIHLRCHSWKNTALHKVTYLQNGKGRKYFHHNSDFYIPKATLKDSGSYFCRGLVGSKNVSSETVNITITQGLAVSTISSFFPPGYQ
Description: as §2

[6] = molecular target: T6, human FcγR IIA R131 CD32aR (v5775) (human, UniProt P12318 34-217, limits assumed); assay: as above
T6 construct: In-house reagent
T6 sequence (looked up): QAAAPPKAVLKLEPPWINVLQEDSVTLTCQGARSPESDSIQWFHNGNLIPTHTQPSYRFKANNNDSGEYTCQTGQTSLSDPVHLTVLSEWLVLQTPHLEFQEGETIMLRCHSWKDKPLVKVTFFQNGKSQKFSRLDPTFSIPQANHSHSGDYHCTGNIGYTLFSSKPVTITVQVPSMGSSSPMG
Description: as §2

[7] = molecular target: T7, human FcγR IIA H131 CD32aH (v5774) (human, UniProt P12318 34-217, limits assumed); assay: as above
T7 construct: In-house reagent
T7 sequence (looked up): T6 sequence (looked up) with R134H
Description: as §2

[8] = molecular target: T8, Biotinylated human FcRn (human, UniProt P55899 24-297; P61769 21-119, limits assumed, biotinylated (site not stated)); assay: SPR (Biacore T200), biotinylated FcRn on neutravidin, antibody as analyte, pH 5.9, steady-state fit
T8 construct: also called Biotinlated human FcRn; human neonatal fragment crystallizable receptor (FcRn)
T8 sequence (P55899 24-297 limits assumed, chain 1 of 2): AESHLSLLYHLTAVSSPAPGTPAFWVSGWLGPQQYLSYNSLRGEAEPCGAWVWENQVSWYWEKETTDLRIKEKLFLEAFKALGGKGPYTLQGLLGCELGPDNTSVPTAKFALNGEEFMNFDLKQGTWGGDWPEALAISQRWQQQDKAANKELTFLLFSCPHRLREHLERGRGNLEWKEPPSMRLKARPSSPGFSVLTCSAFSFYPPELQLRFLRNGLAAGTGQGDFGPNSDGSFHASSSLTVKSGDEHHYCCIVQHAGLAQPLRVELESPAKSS
T8 sequence (P61769 21-119 limits assumed, chain 2 of 2): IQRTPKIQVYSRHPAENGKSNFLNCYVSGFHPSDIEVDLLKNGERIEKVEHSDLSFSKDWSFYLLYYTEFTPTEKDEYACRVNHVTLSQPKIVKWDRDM

[9] = molecular target: T9, human FcγR I CD64 (Sino Biological Inc. 10256-H08H) (human, UniProt P12314 16-288); assay: SPR (Biacore T200), antibody captured on protein A, FcγR as analyte, multicycle, 1:1 fit
T9 construct: Bought reagent
T9 sequence (P12314 16-288 limits assumed): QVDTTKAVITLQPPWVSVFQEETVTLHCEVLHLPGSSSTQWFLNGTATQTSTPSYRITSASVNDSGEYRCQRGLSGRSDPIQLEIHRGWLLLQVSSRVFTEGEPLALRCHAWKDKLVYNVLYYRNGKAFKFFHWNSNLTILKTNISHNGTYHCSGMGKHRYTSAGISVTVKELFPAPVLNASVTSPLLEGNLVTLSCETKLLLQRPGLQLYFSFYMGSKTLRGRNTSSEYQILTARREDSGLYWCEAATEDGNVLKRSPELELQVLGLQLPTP
Description: as §2

Binder	binding result [1]	binding result [2]	binding result [3]	Binding percentage [4] [%]	Kd [4] [µM]	Binding percentage [5] [%]	Kd [5] [µM]	Binding percentage [6] [%]	Kd [6] [µM]	Binding percentage [7] [%]	Kd [7] [µM]	Binding percentage [8] [%]	Kd [8] [µM]	Binding percentage [9] [%]	Kd [9] [µM]
B1	no binding (tested: 200 nM)	no binding (tested: 200 nM)	no binding (tested: 200 nM)												
B2				53.2	48.7	41.5	4.02	58	29.3	63.8	29.2	27	0.132	6.4	0.00379
